Assay results taken from the RNAGym collection of RNA variant scans (doi:10.7554/elife.80360).

B1: Hairpin Ribozyme (parent)
chain: GUCCUCUUUCACGUGCGCGUGAAAGAGAGAAGUGAACCAGAGAAACACACGUUGUGGUAUAUUACCUGGUA

Variants of: B1
Test: self-cleavage, relative activity (ratio to wild type); higher = more cleavage; co-transcriptional

Variant | self-cleavage
G15A G25U | 0.573
G15A C46U | 0.147
G13C G32U | 0.027
G13C G32A | 0.12
G15A G21U | 0.841
G13C G21C | 0.587
U14C G29C | 0.17
U14A G57A | 0.139
G13U U14G | 0.729
G13U U14A | 0.88
U14A G34A | 1.31
U14A G34C | 1.19
G13C U52A | 0.658
G15A G40C | 0.112
G15A G40A | 0.306
G13C U53C | 0.535
U14A A26G | 0.575
G13U U53G | 0.716
G13C G19A | 0.753
G13C G19C | 0.58
U14G G15U | 0.796
U14G A43C | 0.0921
G13U U52A | 0.83
G13U G68A | 0.207

Variant | self-cleavage
U14C A23G | 0.841
U14C G27U | 0.102
U14C G19C | 0.79
U14C G19U | 0.88
U14C A35U | 0.713
U14C A35G | 0.953
U14G G68C | 0.0739
G15A A30U | 0.109
G15A A30C | 0.141
G15A C18A | 1.09
G13U C50A | 0.213
G13U C50G | 0.259
U14A U63G | 0.0901
G13U A59G | 0.0932
G15A A64G | 0.528
U14C C66U | 0.408
U14C C66G | 0.337
U14C U20C | 1.03
U14C U20G | 1.09
U14C U20A | 0.774
G13C G17A | 0.839
G13C G17C | 0.368
G15A C48U | 0.0998
G15A C48A | 0.133

Variant | self-cleavage
U14C G69U | 0.3
U14A A59U | 0.28
G13U A30U | 0.164
U14A C16G | 0.594
U14A C16U | 0.813
U14A C16A | 0.849
G13U G54C | 0.293
G13U U55G | 0.124
U14C C48G | 0.26
G13C C16A | 0.597
U14C U63C | 0.392
U14C U63A | 0
U14G G51A | 0.989
U14G U63C | 0.175
U14G U63G | 0.153
U14G A71C | 1.11
U14G A71G | 0.883
G15A A26G | 0.835
G15A A26U | 0.638
U14C A47U | 0.112
U14C A47C | 0.484
U14C G17A | 0.861
U14C G17U | 1.24
G13U C65G | 0.193

Variant | self-cleavage
G13U C65U | 0.301
G13C G51A | 0.521
U14G C65A | 1.05
G15A A36U | 0.673
G15A U62C | 0.214
G13C A49G | 0.424
G13C A49U | 0.199
U14G U58C | 0.881
U14C A59U | 0.081
U14C A59G | 0.0434
U14G A44G | 0.0802
U14G A44C | 0.218
G15A A41C | 1.08
U14C U58A | 0.763
U14C U58C | 0.78
G13C G27A | 0.314
G13U C38U | 0.231
G13U C38A | 0.188
G13C U60C | 0.912
G13U A28C | 0.34
G15A U70G | 0.838
G15A U70A | 0.689
G13U C48A | 0.0958
G13U C48U | 0.125

Variant | self-cleavage
G15A G57C | 0.101
G15A G57A | 0.167
U14G G34U | 1.11
U14C U70A | 0.814
G15A G69C | 0.31
G13U G42U | 0.289
G13U G42A | 0.16
U14C A43G | 0.147
U14C A43U | 0.094
U14C A43C | 0.114
U14A A45C | 0.21
U14A A45U | 0.116
U14G G69U | 0.2
U14A A31C | 0.391
U14A A31G | 0.52
U14A U70C | 1.01
U14A U70G | 0.714
G15A U58C | 1.03
U14C U33A | 0.0608
G13U G40C | 0.122
G13U G40U | 0.153
G13C A61C | 0.155
G15A C50A | 0.28
G15A C50U | 0.356

Variant | self-cleavage
G15A C50G | 0.219
G15A G17A | 0.87
G13U G57A | 0.123
U14G A49G | 0.386
U14G A45C | 0.243
G15A U53C | 0.907
U14G A64U | 0.07
G13C U70G | 0.502
G15A U60G | 0.639
U14G U60G | 0.58
U14G U60A | 0.641
U14G G17U | 0.513
U14G G17C | 0.415
U14C A28C | 0.565
G13U A22G | 0.659
U14G C38A | 0.17
U14G C38U | 0.345
G13U U20G | 0.815
G15A G56C | 0.172
G15A G56A | 0.135
U14G C66U | 0.217
U14G C66G | 0.173
U14C C18U | 0.868
U14C C18A | 0.933

Variant | self-cleavage
U14A U52G | 0.494
U14A U52C | 0.788
U14A A28U | 0.574
G15A U55G | 0.215
G15A U55A | 0.146
U14G C16A | 0.681
G13C U33C | 0.296
G15A A23U | 0.846
U14A G21U | 0.795
U14A G21A | 0.936
U14G A47C | 0.218
U14C G42U | 0.365
U14C G42C | 0.403
U14C G42A | 0.154
G15A G19U | 0.942
G15A G19A | 0.898
G15A G19C | 0.856
G13U C16A | 0.558
U14A A44C | 0.14
U14A A44G | 0.189
G15A U52A | 0.863
G13C G68U | 0.193
U14A A61G | 0.101
U14A A61U | 0.266

Variant | self-cleavage
U14A G69A | 0.219
U14G U53G | 0.287
U14A U33G | 0.207
U14A U33A | 0.137
U14A U33C | 0.153
U14G C37U | 0.547
U14C C38A | 0.0751
U14G C48U | 0.0482
G13U A43C | 0.147
U14A C37A | 0.378
U14C G15A | 0.825
U14C G15C | 0.932
U14C G15U | 0.926
U14C C50G | 0.268
G13U U60C | 0.902
G13U U60A | 0.696
G13U U60G | 0.404
G13C G42C | 0.3
G13C G42U | 0.201
G13U A31C | 0.133
G15A A71U | 0.785
U14A C50G | 0.279
G15A C66G | 0.0886
U14G G42U | 0.163

Variant | self-cleavage
U14C G68C | 0.212
G15A A22G | 1.11
G15A A22C | 0.821
G15A A22U | 0.699
G13C C48A | 0.16
G15A A47U | 0.17
G15A A47G | 0.124
G13C C46G | 0.164
G13C U55G | 0.107
G13C U55C | 0.0845
U14C U60A | 0.795
G13U A49U | 0.169
U14G A30C | 0.129
G13U A36U | 0.47
G13U G34A | 1.1
G13U G34U | 1.12
G13U G34C | 0.998
G15A A59G | 0.111
U14A A24G | 0.938
G13U A26C | 0.416
G13U A26U | 0.52
G15A G51A | 1.21
U14A G40A | 0.317
U14A G40C | 0.187

Variant | self-cleavage
U14A G40U | 0.127
G13C U67A | 0.189
U14A C18G | 0.636
U14A C18A | 0.888
G13C G54U | 0.532
U14G G57A | 0.146
U14C U55C | 0.483
U14C U55A | 0.271
U14C U55G | 0.352
U14C C37U | 0.376
G13U A24U | 0.595
G13U A24C | 0.563
G13C C37U | 0.508
G13C C37A | 0.204
G13U G69A | 0.312
G13C G25C | 0.356
U14C G21U | 0.702
U14C A31U | 0.0592
U14C A31C | 0.0434
U14G A24U | 0.653
G13U A61G | 0.147
G13U A61C | 0.173
U14A U60G | 0.614
G13U U63A | 0.103

Variant | self-cleavage
G13U U63C | 0.181
U14A C66U | 0.335
U14G A41C | 0.698
G13C A71C | 1.22
G13U U67A | 0.257
G13U C46U | 0.137
G13U C46G | 0.121
U14C A39C | 0.475
U14C A39G | 0.243
U14G U20G | 0.736
U14A G32C | 0.157
U14A A43G | 0.147
G15A A44G | 0.139
U14C C16U | 0.728
G13C G56U | 0.202
G13C G56C | 0.17
G13U A45C | 0.141
U14G G56U | 0.122
G15A C65G | 0.326
G15A C65U | 0.235
G13U G17A | 0.69
G13C G69U | 0.217
U14A U53A | 1.12
G13C A59U | 0.132

Variant | self-cleavage
G13U G32U | 0.157
G13U G29A | 0.157
G13U G29C | 0.133
U14A C38U | 0.478
G13C G29C | 0.189
U14C G32A | 0.0498
G15A A39G | 0.287
G13C C18G | 0.807
G13C C18U | 0.817
G15A G29A | 0.118
U14G A31G | 0.693
G13C G57A | 0.215
G13C G57C | 0.125
U14C A22U | 1.06
U14C A22C | 0.832
G15A G34C | 1.23
G13U U58G | 0.645
G13C U62C | 0.147
U14C U52A | 1.03
U14C U52G | 0.512
G13C C65U | 0.243
U14C C46A | 0.174
U14C C46U | 0.078
U14C C46G | 0.0498

Variant | self-cleavage
G15A A61C | 0.161
G15A A61U | 0.283
G15A G54A | 0.572
G15A G54C | 0.364
G15A C16G | 1.04
G15A C16A | 0.881
U14G G21C | 0.342
U14G G21A | 0.686
U14G G25A | 0.384
G15A C38U | 0.44
G15A G27U | 0.373
G13U U70G | 0.78
G13U U70C | 0.784
U14G G27C | 0.0943
U14A C65A | 0.958
G15A U67C | 0.24
G15A U67G | 0.234
G15A A35U | 0.52
G15A A35C | 0.806
U14G U62A | 0.209
U14A G29U | 0.206
U14A G29C | 0.168
U14G G19U | 0.893
G13C U58G | 0.398

Variant | self-cleavage
G13U G25A | 0.559
G13U G25U | 0.527
U14C A44G | 0.155
U14G A36U | 0.311
G13U G21U | 0.53
G13C U14C | 0.583
U14G A39G | 0.227
G13U A23U | 0.709
G13U G56U | 0.135
G13U G56A | 0.127
G15A A43C | 0.162
G13U G19U | 0.895
G13U C66U | 0.502
U14C A71U | 0.87
U14C C65G | 0.214
U14C C65A | 0.93
G13U A35G | 0.709
G13U A35C | 0.876
G15A A49C | 0.0193
U14C G57U | 0.265
U14C A49U | 0.134
U14C A49C | 0.162
